Patent US20210230570

These substances were tested on plasma purified human AT-III (antithrombin III), in complex with low molecular weight heparin (assay: same assay; ratio of K0.5 to that of Catalyst Biosciences WT FIXa).

Row | Substance | K0.5-mut/K0.5-wt
1 | BeneFIX Coagulation Factor IX (Recombinant), activated (FIXa) | 0.9
2 | FIXa-A103N/N105S | 1.1
3 | FIXa-D85N | 1.1
4 | FIXa-D104N/K106S | 0.9
5 | FIXa-K106N/V108S | 1.6

What follows are substances tested on Antithrombin III (AT-III), plasma purified human, in complex with full-length unfractionated heparin (UFH) (assay: not given).

Row | Substance | K0.5 | K0.5-mut/K0.5-wt
6 | FIXa A103N/N105S | 20 nM | 1
7 | FIXa A103N/N105S/Y155F | 11 nM | 0.6
8 | FIXa D64A | 16 nM | 0.8
9 | FIXa D85N | 17 nM | 0.9
10 | FIXa D104N/K106S | 20 nM | 1
11 | FIXa D104N/K106S/Y155F | 6 nM | 0.3
12 | FIXa K5A | 22 nM | 1.2
13 | FIXa N157D | 17 nM | 
14 | FIXa N157Q | 16 nM | 
15 | FIXa N167D | 12 nM | 
16 | FIXa N167Q | 12 nM | 
17 | FIXa S53A | 27 nM | 1.4
18 | FIXa S61A | 19 nM | 1
19 | FIXa S158D | 15 nM | 
20 | FIXa S158E | 14 nM | 
21 | FIXa T159A | 33 nM | 
22 | FIXa T169A | 17 nM | 
23 | FIXa T172A | 16 nM | 
24 | FIXa Y155F | 13 nM | 
25 | FIXa Y155H | 25 nM | 
26 | FIXa Y155Q | 23 nM | 
27 | Plasma Purified FIXa | 30 nM | 

These substances were tested against Factor X (FX) (UniProt P00742) (assay: not given).
Factor X (FX), sequence (P00742 41-488): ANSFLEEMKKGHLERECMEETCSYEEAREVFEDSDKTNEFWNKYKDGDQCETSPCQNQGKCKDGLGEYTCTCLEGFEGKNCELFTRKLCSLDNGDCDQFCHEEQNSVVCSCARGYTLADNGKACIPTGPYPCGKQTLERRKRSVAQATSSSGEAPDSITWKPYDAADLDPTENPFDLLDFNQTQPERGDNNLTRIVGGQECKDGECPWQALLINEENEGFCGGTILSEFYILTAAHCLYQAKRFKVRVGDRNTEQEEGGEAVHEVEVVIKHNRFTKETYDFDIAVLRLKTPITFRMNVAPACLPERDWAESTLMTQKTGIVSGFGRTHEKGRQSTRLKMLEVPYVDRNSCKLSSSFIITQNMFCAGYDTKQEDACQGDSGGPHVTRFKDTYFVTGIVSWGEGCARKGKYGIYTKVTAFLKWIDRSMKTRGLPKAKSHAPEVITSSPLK

Row | Substance | KM | % of WT (kcat/KM) | kcat/KM (M^-1s^-1) | kcat/KM
28 | FIXa K5A | 0.0654 µM |  |  | 
29 | FIXa-A103N/N105S/Y155F |  | 85% | 3.9e+07 M⁻¹ s⁻¹ | 
30 | FIXa-D64A |  |  | 2.5e+06 M⁻¹ s⁻¹ | 
31 | FIXa-D64N |  |  | 1e+07 M⁻¹ s⁻¹ | 
32 | FIXa-D85N |  | 153% | 7.3e+07 M⁻¹ s⁻¹ | 7e+07 M⁻¹ s⁻¹
33 | FIXa-D104N/K106S |  | 83% | 3.8e+07 M⁻¹ s⁻¹ | 
34 | FIXa-D104N/K106S/Y155F |  | 78% | 3.6e+07 M⁻¹ s⁻¹ | 
35 | FIXa-K106N/V108S |  | 60% | 2.8e+07 M⁻¹ s⁻¹ | 
36 | FIXa-S53A |  | 76% | 3.5e+07 M⁻¹ s⁻¹ | 
37 | FIXa-S61A |  | 105% | 4.8e+07 M⁻¹ s⁻¹ | 

These substances were tested against Factor X (FX), active site titrated and DFP/EGR-cmk treated zymogen (UniProt P00742) (assay: not given).
Factor X (FX), active site titrated and DFP/EGR-cmk treated zymogen, sequence (P00742 41-488): as above

Row | Substance | kcat
38 | FIXa A103N/N105S (A[103]N/N[105]S by chymotrypsin numbering) | 3.1 s⁻¹
39 | FIXa A103N/N105S/Y155F (A[103]N/N[105]S/Y[155]F by chymotrypsin numbering) | 3.2 s⁻¹
40 | FIXa D64A (D[64]A by chymotrypsin numbering) | 0.3 s⁻¹
41 | FIXa D64N (D[64]N by chymotrypsin numbering) | 1.2 s⁻¹
42 | FIXa D85N (D[85]N by chymotrypsin numbering) | 4.2 s⁻¹
43 | FIXa D104N/K106S (D[104]N/K[106]S by chymotrypsin numbering) | 3.1 s⁻¹
44 | FIXa D104N/K106S/Y155F (D[104]N/K[106]S/Y[155]F by chymotrypsin numbering) | 2.9 s⁻¹
45 | FIXa K5A (K[5]A by chymotrypsin numbering) | 3.1 s⁻¹
46 | FIXa S53A (S[53]A by chymotrypsin numbering) | 3.7 s⁻¹

The substances below were run against Factor X (UniProt P00742) (assay: not given).
Factor X, sequence (P00742 41-488): as above

Row | Substance | kcat
47 | FIXa-A103N/N105S/Y155F | 3.2 s⁻¹
48 | FIXa-D64A | 0.3 s⁻¹
49 | FIXa-D64N | 1.2 s⁻¹
50 | FIXa-D85N | 4.1 s⁻¹
51 | FIXa-D104N/K106S/Y155F | 2.9 s⁻¹
52 | FIXa-K5A | 3.5 s⁻¹
53 | FIXa-K106N/V108S | 2.5 s⁻¹
54 | FIXa-S53A | 3.7 s⁻¹
